T1: CNTF receptor-α (CNTFRα) (UniProt P26992 23-342, limits assumed)
T1 construct: also called CNTFRa; CNTF a-receptor
T1 sequence (looked up): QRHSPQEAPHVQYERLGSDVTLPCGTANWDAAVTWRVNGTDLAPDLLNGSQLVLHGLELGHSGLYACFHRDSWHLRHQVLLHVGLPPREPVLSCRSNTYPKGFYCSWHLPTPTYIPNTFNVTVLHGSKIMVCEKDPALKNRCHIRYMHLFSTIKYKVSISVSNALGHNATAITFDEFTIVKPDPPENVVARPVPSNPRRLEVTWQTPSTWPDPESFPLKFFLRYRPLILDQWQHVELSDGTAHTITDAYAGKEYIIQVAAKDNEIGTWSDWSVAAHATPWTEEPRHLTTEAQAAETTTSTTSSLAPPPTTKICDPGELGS

B1: hCNTF (human ciliary neurotrophic factor), wild type (ligand)
chain: MAFTEHSPLTPHRRDLCSRSIWLARKIRSDLTALTESYVKHQGLNKNINLDSADGMPVASTDQWSELTEAERLQENLQAYRTFHVLLARLLEDQQVHFTPTEGDFHQAIHTLLLQVAAFAYQIEELMILLEYKIPRNEADGMPINVGDGGLFEKKLWGLKVLQELSQWTVRSIHDLRFISSHQTGIPARGSHYIANNKKM
notes: also called human CNTF
B2: (Ser166His/Gln167Ala) hCNTF (ligand)
chain: B1 chain with S166H, Q167A
B3: (Ser166Asp/Gln167Ala/Thr169Leu) hCNTF (ligand)
chain: B1 chain with S166D, Q167A, T169L
B4: (Gln167Ala/Thr169Leu/Phe178Ile) hCNTF (ligand)
chain: B1 chain with Q167A, T169L, F178I
B5: (Ser166Asp/Gln167His) hCNTF (ligand)
chain: B1 chain with S166D, Q167H
notes: also called DH-CNTF; DH-hCNTF
B6: (Lys160Gln/Gln167Ala) hCNTF (ligand)
chain: B1 chain with K160Q, Q167A
B7: (Ser166Ala/Gln167Ala) hCNTF (ligand)
chain: B1 chain with S166A, Q167A
B8: (Val170Arg/His174Ala) hCNTF (ligand)
chain: B1 chain with V170R, H174A
B9: (Gln167Ala/His174Ala) hCNTF (ligand)
chain: B1 chain with Q167A, H174A
B10: (Lys160Gln/Gln167Thr) hCNTF (ligand)
chain: B1 chain with K160Q, Q167T
B11: (Gln167Ala) hCNTF (ligand)
chain: B1 chain with Q167A
B12: (Gln167Ala/Thr169Leu) hCNTF (ligand)
chain: B1 chain with Q167A, T169L
B13: (Gln167Ala/Arg177Leu) hCNTF (ligand)
chain: B1 chain with Q167A, R177L
B14: (Lys155Ala/Ser166Asp/Gln167His) hCNTF (ligand)
chain: B1 chain with K155A, S166D, Q167H
B15: (Gln167Tyr) hCNTF (ligand)
chain: B1 chain with Q167Y
B16: (Ser166Asn/Gln167Ala) hCNTF (ligand)
chain: B1 chain with S166N, Q167A
B17: (Phe152Ala/Ser166Asp/Gln167His) hCNTF (ligand)
chain: B1 chain with F152A, S166D, Q167H
B18: (Asp30Gln/Ser166Asp/Gln167His) hCNTF (ligand)
chain: B1 chain with D30Q, S166D, Q167H
B19: (Gln167Ala/Thr169Ser) hCNTF (ligand)
chain: B1 chain with Q167A, T169S
B20: (Ser166Asp/Gln167Ala) hCNTF (ligand)
chain: B1 chain with S166D, Q167A
B21: (Thr169Ile/His174Ala) hCNTF (ligand)
chain: B1 chain with T169I, H174A
notes: also called (Thr169Ile/His174Ala) hCNTP
B22: (Val161Leu/Gln167Ala) hCNTF (ligand)
chain: B1 chain with V161L, Q167A
B23: (Gln163Ser/Gln167His) hCNTF (ligand)
chain: B1 chain with Q163S, Q167H
B24: (Ser166Gly/Gln167Ala) hCNTF (ligand)
chain: B1 chain with S166G, Q167A
B25: (Ser166Asp/Gln167Ala/Arg177Phe) hCNTF (ligand)
chain: B1 chain with S166D, Q167A, R177F
B26: (Gln63Arg/Ser166Asp/Gln167His) hCNTF (ligand)
chain: B1 chain with Q63R, S166D, Q167H
B27: (Gln167Thr) hCNTF (ligand)
chain: B1 chain with Q167T
B28: (Gln63Arg) hCNTF (ligand)
chain: B1 chain with Q63R

Changes are numbered by the printed parent chain.

In this experiment the target is T1, CNTF receptor-α (CNTFRα). The experiment is described as follows: solid phase binding assay on CNTFRα. As for the experimental part:
The relative binding affinities to CNTF receptor-α (CNTFRα) of hCNTF and different hCNTF variants were determined by solid phase binding assay as previously described (10). […] These variants, like DH-CNTF, have increased utility for treatment of obesity and associated diseases, such as diabetes.
Turning to B1, the “Relative Binding (hCNTF = 1)” value was 1.1 relative (hCNTF = 1).

Turning to B2, the “Relative Binding (hCNTF = 1)” value is 8.8 relative (hCNTF = 1).

Regarding B3, the “Relative Binding (hCNTF = 1)” value was 21 relative (hCNTF = 1).

As for B4, the “Relative Binding (hCNTF = 1)” value was 8.4 relative (hCNTF = 1).

As for B5, the “Relative Binding (hCNTF = 1)” value is 22.8 relative (hCNTF = 1).

Regarding B6, the “Relative Binding (hCNTF = 1)” value is 11.7 relative (hCNTF = 1).

For the molecule B7, the “Relative Binding (hCNTF = 1)” value is 8.1 relative (hCNTF = 1).

Regarding B8, the “Relative Binding (hCNTF = 1)” value was 3.3 relative (hCNTF = 1).

B9: the “Relative Binding (hCNTF = 1)” value was 3.6 relative (hCNTF = 1).

For the molecule B10, the “Relative Binding (hCNTF = 1)” value is 3.1 relative (hCNTF = 1).

With B11, the “Relative Binding (hCNTF = 1)” value is 9 relative (hCNTF = 1).

For B12, the “Relative Binding (hCNTF = 1)” value is 9.6 relative (hCNTF = 1).

With B13, the “Relative Binding (hCNTF = 1)” value was 11.7 relative (hCNTF = 1).

B14: the “Relative Binding (hCNTF = 1)” value is 51 relative (hCNTF = 1).

For B15, the “Relative Binding (hCNTF = 1)” value is 9.6 relative (hCNTF = 1).

On to B16, for which the “Relative Binding (hCNTF = 1)” value was 12.4 relative (hCNTF = 1).

For the molecule B17, the “Relative Binding (hCNTF = 1)” value is 32 relative (hCNTF = 1).

B18: the “Relative Binding (hCNTF = 1)” value was 30 relative (hCNTF = 1).

B19: the “Relative Binding (hCNTF = 1)” value is 6.9 relative (hCNTF = 1).

As for B20, the “Relative Binding (hCNTF = 1)” value is 13.5 relative (hCNTF = 1).

With B21, the “Relative Binding (hCNTF = 1)” value is 0.07 relative (hCNTF = 1).

Consider B22, for which the “Relative Binding (hCNTF = 1)” value was 8.8 relative (hCNTF = 1).

With B23, the “Relative Binding (hCNTF = 1)” value is 4.1 relative (hCNTF = 1).

As to B24, the “Relative Binding (hCNTF = 1)” value was 7.5 relative (hCNTF = 1).

As to B25, the “Relative Binding (hCNTF = 1)” value was 13.1 relative (hCNTF = 1).

As for B26, the “Relative Binding (hCNTF = 1)” value is 66 relative (hCNTF = 1).

Regarding B27, the “Relative Binding (hCNTF = 1)” value is 11.8 relative (hCNTF = 1).

Take B28: the “Relative Binding (hCNTF = 1)” value was 2 relative (hCNTF = 1).

The values are drawn from patent publication US6565869 (ISTITUTO DI RICERCHE DI BIOLOGIA MOLECOLARE P ANGELETTI S P …, dated 2003).
